Results on one molecule are retold here after paper PMC9135708.

The target of this assay is anti-PfTRAP mAb AKBR-7 (mouse). Briefly: BLI; Octet QKe; antibodies in culture supernatants immobilized on anti-Mouse IgG Fc Capture biosensors; antigen serially diluted (1–1000 nM) in 10x Kinetics Buffer (PBS + 0.1% BSA, 0.02% Tween-20, 0.05% sodium azide); fit to the 1:1 binding model.

B1: Plasmodium falciparum TRAP ectodomain (PfTRAP) (domain or fragment)
chain: RDVQNNIVDEIKYSEEVCNDQVDLYLLMDCSGSIRRHNWVNHAVPLAMKLIQQLNLNDNAIHLYVNVFSNNAKEIIRLHSDASKNKEKALIIIRSLLSTNLPYGRTNLTDALLQVRKHLNDRINRENANQLVVILTDGIPDSIQDSLKESRKLSDRGVKIAVFGIGQGINVAFNRFLVGCHPSDGKCNLYADSAWENVKNVIGPFMKAVCVEVEKTASCGVWDEWSPCSVTCGKGTRSRKREILHEGCTSEIQEQCEEERCPPKWEPLDVPDEPEDDQPRPRGDNSSVQKPEENIIDNNPQEPSPNPEEGKDENPNGFDLDENPENPPNPDIPEQKPNIPEDSEKEVPSDVPKNPEDDREENFDIPKKPENKHDNQNNLPNDKSDRNIPYSPLPPKVLDNERKQSDPQSQDNNGNRHVPNSEDRETRPHGRNNENRSYNRKYNDTPKHPEREEHEKPDNNKKKGESDNKYK
modifications: site-specific biotinylation using BirA ligase, when required
Consider B1, for which the Kd was 0.15 nM.
